Target: T1, endogenous ZO1 with N-terminal mNeonGreen (CRISPR knock-in, MDCK-II) (dog (endogenous in MDCK-II)), O97758
T1 chain: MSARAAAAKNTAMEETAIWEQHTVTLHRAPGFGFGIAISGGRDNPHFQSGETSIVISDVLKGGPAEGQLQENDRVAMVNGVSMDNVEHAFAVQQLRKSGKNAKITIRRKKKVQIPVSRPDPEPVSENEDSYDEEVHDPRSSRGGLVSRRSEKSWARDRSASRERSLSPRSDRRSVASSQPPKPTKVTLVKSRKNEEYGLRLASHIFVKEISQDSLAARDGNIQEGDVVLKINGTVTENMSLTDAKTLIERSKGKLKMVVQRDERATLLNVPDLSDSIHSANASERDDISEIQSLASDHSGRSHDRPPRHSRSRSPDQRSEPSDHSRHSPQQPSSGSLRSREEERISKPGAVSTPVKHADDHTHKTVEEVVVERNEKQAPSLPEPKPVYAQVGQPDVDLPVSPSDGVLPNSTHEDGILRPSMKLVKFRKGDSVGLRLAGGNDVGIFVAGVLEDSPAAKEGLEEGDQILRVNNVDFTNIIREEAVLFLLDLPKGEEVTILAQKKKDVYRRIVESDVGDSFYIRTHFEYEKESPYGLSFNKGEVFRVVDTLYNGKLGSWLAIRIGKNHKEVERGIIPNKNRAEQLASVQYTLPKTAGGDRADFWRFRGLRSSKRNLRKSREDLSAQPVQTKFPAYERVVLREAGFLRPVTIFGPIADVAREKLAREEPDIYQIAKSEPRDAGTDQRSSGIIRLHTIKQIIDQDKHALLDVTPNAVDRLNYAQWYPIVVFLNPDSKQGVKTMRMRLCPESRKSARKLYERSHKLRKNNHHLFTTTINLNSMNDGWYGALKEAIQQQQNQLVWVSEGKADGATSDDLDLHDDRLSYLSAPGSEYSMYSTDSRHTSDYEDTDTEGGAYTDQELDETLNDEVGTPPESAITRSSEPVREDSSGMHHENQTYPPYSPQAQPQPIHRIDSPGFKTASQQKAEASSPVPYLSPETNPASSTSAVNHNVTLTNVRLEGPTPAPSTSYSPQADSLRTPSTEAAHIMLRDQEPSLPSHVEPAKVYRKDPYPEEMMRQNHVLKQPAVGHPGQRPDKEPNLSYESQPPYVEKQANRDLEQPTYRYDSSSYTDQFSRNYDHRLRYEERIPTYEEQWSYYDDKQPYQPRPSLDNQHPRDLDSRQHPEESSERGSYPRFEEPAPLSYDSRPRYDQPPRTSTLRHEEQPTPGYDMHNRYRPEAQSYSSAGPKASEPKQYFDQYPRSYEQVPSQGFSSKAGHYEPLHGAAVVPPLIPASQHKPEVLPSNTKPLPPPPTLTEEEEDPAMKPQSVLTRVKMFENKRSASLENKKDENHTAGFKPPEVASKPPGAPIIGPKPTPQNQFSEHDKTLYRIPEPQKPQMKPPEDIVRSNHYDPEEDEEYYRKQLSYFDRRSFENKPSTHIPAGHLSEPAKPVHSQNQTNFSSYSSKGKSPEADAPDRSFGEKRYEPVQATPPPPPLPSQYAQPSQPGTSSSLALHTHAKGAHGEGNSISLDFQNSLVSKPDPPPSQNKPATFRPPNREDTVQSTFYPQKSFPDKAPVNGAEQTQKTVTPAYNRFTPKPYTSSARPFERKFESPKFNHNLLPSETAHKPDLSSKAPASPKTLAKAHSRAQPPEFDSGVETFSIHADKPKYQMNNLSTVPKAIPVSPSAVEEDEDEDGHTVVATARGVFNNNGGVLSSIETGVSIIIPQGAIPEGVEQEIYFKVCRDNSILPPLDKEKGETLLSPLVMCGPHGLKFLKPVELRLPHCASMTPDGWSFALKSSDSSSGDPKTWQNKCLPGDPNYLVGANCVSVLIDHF
Assay: FCS molecular brightness
Conditions: remark: other sources report otherwise

B1: endogenous ZO1 with N-terminal mNeonGreen (CRISPR knock-in, MDCK-II), O97758 1-1769 (natural protein)
chain: T1 chain
With B1 the stoichiometry N was 5.
